Source: the supplement of paper PMC7877785
± gives the uncertainty stated by the source.

Experiment: self-splicing fitness, log relative to wild type (ln ratio); higher = more splicing; Tetrahymena group I intron in knt gene, E. coli kanamycin selection, DiMSum; sequences stand for … in CUCUCU…GGAGGGAAAAGUUAUCAGGCAUGCACCUGGUAGCUAGUCUUUAAACCAAUAGAUUGCAUCGGUUUAAAAGGCAAGACCGUCAAAUUGCGGGAAAGGGGUCAACAGCCGUUCAGUACCAAGUCUCAGGGGAAACUUUGAGAUGGCCUUGCAAAGGGUAUGGUAAUAAGCUGACGGACAUGGUCCUAACCACGCAGCCAAGUCCUAAGUCAACAGAUCUUCUGUUGAUAUGGAUGCAGUUCACAGACUAAAUGUCGGUCGGGGAAGAUGUAUUCUUCUCAUAAGAUAUAGUCGGACCUCUCCUUAAUGGGAGCUAGCGGAUGAAGUGAUGCAACACUGGAGCCGCUGGGAACUAAUUUGUAUGCGAAAGUAUAUUGAUUAGUUUUGGAGUACUCGUGGUCG
In short: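 Pooled colonies went to amplicon sequencing on an Illumina HiSeq 2500 after six replicate transformations. The plates were LB agar with 100 μg/mL carbenicillin, 50 μM IPTG and 0.2% rhamnose, with or without 25 μg/mL kanamycin, incubated overnight at 37°C or 30°C. The E. coli BL21(DE3) library had all eight P1ex-region intron nucleotides randomised, the intron placed in the knt kanamycin-resistance gene on pET-22b(+). DiMSum fitness is the error-weighted combination of replicate fold changes, kanamycin against none, normalised to wild type.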

Sequence | self-splicing fitness (ln) (30 °C) | self-splicing fitness (ln) (37 °C)
UAAUAGCAAUAUUACGCGGU | -3 ± 0.31 | -2.29 ± 0.35
AAGGAGCAAUAUUACGGGAU | -4.25 ± 0.29 | -3.56 ± 0.36
GUUGAGCAAUAUUACGUUGC | -2.03 ± 0.42 | 
ACACAGCAAUAUUACGUUCC | -2.17 ± 0.088 | -1.29 ± 0.1
UAGGAGCAAUAUUACGAGAG | -3.02 ± 0.21 | 
UCUAAGCAAUAUUACGAAUU | -3.75 ± 0.31 | -2.66 ± 0.25
CAACAGCAAUAUUACGAACC | -2.27 ± 0.25 | -1.62 ± 0.22
UGGUAGCAAUAUUACGACUG | -0.361 ± 0.25 | -0.806 ± 0.3
UCACAGCAAUAUUACGUGAG | -0.886 ± 0.03 | -0.396 ± 0.052
GGCCAGCAAUAUUACGGUCC | -3.11 ± 0.21 | -2.45 ± 0.37
AUAAAGCAAUAUUACGGUUU | -0.835 ± 0.072 | -0.0425 ± 0.098
UACCAGCAAUAUUACGACAU | -1.381 ± 0.012 | -0.566 ± 0.032
UAAAAGCAAUAUUACGUUUA | -1.14 ± 0.099 | -0.871 ± 0.099
GCGAAGCAAUAUUACGACGU | -2.69 ± 0.21 | -2.02 ± 0.2
GAAUAGCAAUAUUACGUUCA | -1.04 ± 0.38 | -0.336 ± 0.3
GGCUAGCAAUAUUACGGUGC | -1.49 ± 0.19 | -0.767 ± 0.2
AGGAAGCAAUAUUACGCCCU | -2.95 ± 0.33 | 
UGUUAGCAAUAUUACGCAUU | -2.6 ± 0.27 | -1.47 ± 0.2
CUUUAGCAAUAUUACGUAGA | -2.52 ± 0.22 | -2.53 ± 0.33
UCACAGCAAUAUUACGCGAG | -1.32 ± 0.063 | -0.0838 ± 0.077
AUUGAGCAAUAUUACGGCCU | -3.53 ± 0.21 | -0.674 ± 0.11
UAAAAGCAAUAUUACGGUUA | 0.139 ± 0.067 | 0.222 ± 0.079
ACGAAGCAAUAUUACGAUAC | -3.68 ± 0.2 | -2.2 ± 0.22
AUUUAGCAAUAUUACGCCCC | -0.747 ± 0.37 | 
GCGCAGCAAUAUUACGGAUA | -1.98 ± 0.16 | -0.989 ± 0.13

Sequence | self-splicing fitness (ln) (30 °C) | self-splicing fitness (ln) (37 °C)
GCCGAGCAAUAUUACGAAUG | -3.59 ± 0.3 | -2.75 ± 0.27
GUGCAGCAAUAUUACGAAGG | -2.59 ± 0.19 | -1.53 ± 0.23
AUUGAGCAAUAUUACGACUA | -1.2 ± 0.42 | -1.89 ± 0.41
AGUGAGCAAUAUUACGGCAU | -1.36 ± 0.12 | -0.254 ± 0.13
AAACAGCAAUAUUACGUAUG | -2.03 ± 0.094 | -1.31 ± 0.11
ACUGAGCAAUAUUACGUGAC | -3.23 ± 0.2 | -2.95 ± 0.27
UGGAAGCAAUAUUACGCCAC | -2.25 ± 0.42 | 
CUUGAGCAAUAUUACGCUCG | -1.7 ± 0.17 | -2.65 ± 0.44
UAUAAGCAAUAUUACGUUGA | -3.52 ± 0.22 | -1.25 ± 0.12
GAUGAGCAAUAUUACGACCA | -3.85 ± 0.35 | -3.8 ± 0.39
GCGUAGCAAUAUUACGUUGU | -2.73 ± 0.17 | -1.89 ± 0.18
UGGGAGCAAUAUUACGAGCU | -3.52 ± 0.37 | -1.69 ± 0.25
AGCGAGCAAUAUUACGGGUU | -2.83 ± 0.2 | -1.09 ± 0.15
UGCGAGCAAUAUUACGCUAC |  | -0.55 ± 0.46
CUAUAGCAAUAUUACGCUCU | -3.4 ± 0.29 | -2.3 ± 0.34
UAGCAGCAAUAUUACGUGAC | -3.19 ± 0.18 | -3.45 ± 0.28
GAUAAGCAAUAUUACGAUGA | -0.666 ± 0.097 | -0.376 ± 0.11
UUUUAGCAAUAUUACGACUG | -0.652 ± 0.097 | -0.152 ± 0.13
AUGCAGCAAUAUUACGAUGG | -3.04 ± 0.21 | -2.94 ± 0.27
GUUGAGCAAUAUUACGCCCU | -1 ± 0.19 | 0.108 ± 0.25
CCCAAGCAAUAUUACGAGAA | -3.57 ± 0.33 | -2.87 ± 0.28
AAUGAGCAAUAUUACGACAA | -3.01 ± 0.27 | -1.93 ± 0.25
UAGAAGCAAUAUUACGAAAU | -3.48 ± 0.24 | -1.95 ± 0.21
UAGUAGCAAUAUUACGGUCA | -0.074 ± 0.16 | -0.852 ± 0.18
AGGAAGCAAUAUUACGGCUC | -1.07 ± 0.14 | -0.713 ± 0.19

Sequence | self-splicing fitness (ln) (30 °C) | self-splicing fitness (ln) (37 °C)
GGGCAGCAAUAUUACGCGGU | -3.4 ± 0.19 | -1.77 ± 0.27
UCAUAGCAAUAUUACGUCCC | -2.19 ± 0.49 | 
CCUAAGCAAUAUUACGUGCU | -3 ± 0.24 | -2.55 ± 0.36
UAACAGCAAUAUUACGAACG | -0.391 ± 0.078 | 0.172 ± 0.11
GCAAAGCAAUAUUACGCCUU | -2.55 ± 0.23 | -1.04 ± 0.21
UGCCAGCAAUAUUACGGCCU | -0.579 ± 0.1 | -0.213 ± 0.12
UACUAGCAAUAUUACGCGGC | -4.73 ± 0.46 | -2.95 ± 0.4
UUAUAGCAAUAUUACGUAUG | -1.03 ± 0.12 | -0.187 ± 0.15
UCCGAGCAAUAUUACGACAA | -2.23 ± 0.46 | 
AGCGAGCAAUAUUACGCUAU |  | -2.87 ± 0.24
GAGAAGCAAUAUUACGCGUA | -1.03 ± 0.12 | -1.1 ± 0.13
UAGGAGCAAUAUUACGCAAU |  | -1.73 ± 0.38
UCAAAGCAAUAUUACGCAGA | -3.13 ± 0.21 | -2.64 ± 0.16
GCUGAGCAAUAUUACGGCUG | -1.57 ± 0.26 | -1.96 ± 0.44
UCCUAGCAAUAUUACGCGCC | -2.63 ± 0.17 | -2.29 ± 0.24
GAUCAGCAAUAUUACGCCCA | -0.563 ± 0.2 | -0.558 ± 0.28
UUAAAGCAAUAUUACGGUCG | 0.224 ± 0.082 | 0.441 ± 0.095
UACCAGCAAUAUUACGCCUU | -0.707 ± 0.066 | -0.62 ± 0.074
CCAGAGCAAUAUUACGUCCU | -4.05 ± 0.22 | -2.48 ± 0.25
AUUCAGCAAUAUUACGUCAC | -3.45 ± 0.2 | -2.19 ± 0.25
GUGGAGCAAUAUUACGGCAC | -1.39 ± 0.19 | -0.386 ± 0.31
CAUCAGCAAUAUUACGUCAG | -0.52 ± 0.062 | 0.43 ± 0.092
GGCGAGCAAUAUUACGUCGG | -3.78 ± 0.33 | -2.13 ± 0.28
AGUAAGCAAUAUUACGUAUG | -2.94 ± 0.29 | -2.15 ± 0.24
AACCAGCAAUAUUACGACCU | -0.404 ± 0.093 | -0.0868 ± 0.1

Sequence | self-splicing fitness (ln) (30 °C) | self-splicing fitness (ln) (37 °C)
GACGAGCAAUAUUACGAAGG | -3.03 ± 0.19 | -2.52 ± 0.33
AUAAAGCAAUAUUACGCCCC | -0.123 ± 0.16 | 0.0897 ± 0.24
ACUUAGCAAUAUUACGAUAC | -3.82 ± 0.42 | -2.28 ± 0.26
UAAGAGCAAUAUUACGCACA |  | -1.42 ± 0.33
CAUAAGCAAUAUUACGGUUA | -2.7 ± 0.16 | -2.05 ± 0.12
CCGCAGCAAUAUUACGAGGC | -3.72 ± 0.19 | -2.65 ± 0.23
AUUGAGCAAUAUUACGACUU | -1.5 ± 0.12 | -0.31 ± 0.13
CUCGAGCAAUAUUACGUAUU | -3.51 ± 0.15 | -1.96 ± 0.14
GCCAAGCAAUAUUACGGGGG | -4.11 ± 0.19 | -2.35 ± 0.14
GGAGAGCAAUAUUACGUGGG | -3.07 ± 0.44 | -2.28 ± 0.33
GAUGAGCAAUAUUACGUAUU | -3.83 ± 0.34 | -3.78 ± 0.36
GUAUAGCAAUAUUACGCAUU | -2 ± 0.17 | -2.28 ± 0.29
UUUGAGCAAUAUUACGUCGC | -3.06 ± 0.49 | -2.07 ± 0.47
GCGCAGCAAUAUUACGAGCA | -3.48 ± 0.21 | -1.11 ± 0.14
CACUAGCAAUAUUACGUCCG | -0.0671 ± 0.11 | 0.268 ± 0.13
GUCGAGCAAUAUUACGGUCA | -1.37 ± 0.26 | -0.499 ± 0.24
GAUCAGCAAUAUUACGCAGA | -2.13 ± 0.14 | -0.891 ± 0.16
ACUGAGCAAUAUUACGCAAG | -2.68 ± 0.28 | -1.54 ± 0.19
CAACAGCAAUAUUACGCUCG | -0.822 ± 0.072 | -0.727 ± 0.1
CGUAAGCAAUAUUACGCUUG | -3.54 ± 0.18 | -0.367 ± 0.14
ACCCAGCAAUAUUACGGGCG | -0.609 ± 0.055 | -0.0252 ± 0.077
GACUAGCAAUAUUACGAGGC |  | -2.23 ± 0.3
CCGAAGCAAUAUUACGUAGG | -3.15 ± 0.17 | -2.65 ± 0.23
UCUAAGCAAUAUUACGAAGG | -2.53 ± 0.15 | -0.99 ± 0.16
